Measured values reported in patent US9212226B2, “Amino acid sequences directed against CXCR4 and other GPCRs and compounds comprising the same” (Ablynx N.V., priority 2008, dated 2015).

B1: 238D4: Nanobody (VHH) raised against human CXCR4, SEQ ID NO: 239 (protein)
VHH: EVQLMESGGGLVQAGGSLRLSCAASGRTFNNYAMGWFRRAPGKEREFVAAITRSGVRSGVSAIYGDSVKDRFTISRDNAKNTLYLQMNSLKPEDTAVYTCAASAIGSGALRRFEYDYSGQGTQVTVSS
modifications: Nanobody, Nanobody constructs or fragments thereof
B2: 238D2: Nanobody (VHH) raised against human CXCR4, SEQ ID NO: 238 (protein)
VHH: EVQLVESGGGLVQTGGSLRLSCAASGFTFSSYAMSWVRQAPGKGLEWVSGIKSSGDSTRYAGSVKGRFTISRDNAKNMLYLQMYSLKPEDTAVYYCAKSRVSRTGLYTYDNRGQGTQVTVSS
modifications: Nanobody, Nanobody constructs or fragments thereof

Molecular target: CXCR4 (Homo sapiens, UniProt P61073)
Sequence (P61073 whole entry): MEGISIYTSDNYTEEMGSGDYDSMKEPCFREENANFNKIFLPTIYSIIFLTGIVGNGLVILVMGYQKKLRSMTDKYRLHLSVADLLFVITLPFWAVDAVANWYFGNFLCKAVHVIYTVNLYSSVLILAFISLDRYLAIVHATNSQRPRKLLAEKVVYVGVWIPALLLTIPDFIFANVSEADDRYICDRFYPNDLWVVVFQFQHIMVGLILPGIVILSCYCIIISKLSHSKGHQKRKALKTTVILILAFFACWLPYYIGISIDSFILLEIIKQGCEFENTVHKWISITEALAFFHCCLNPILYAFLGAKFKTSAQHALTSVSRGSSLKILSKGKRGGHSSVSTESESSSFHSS
Assay: [125I]-238D2 competition binding on membranes from HEK293T cells transiently expressing CXCR4
Procedure: HEK293T cells were maintained at 37° C. in a humidified 5% CO2, 95% air atmosphere in Dulbecco's modified Eagle's medium (DMEM) containing 2 mM L-glutamine, 50 IU/ml penicillin, 50 μg/ml streptomycin, and 10% (v/v) fetal calf serum. Jurkat cells were cultured in a humidified 5% CO2, 95% air atmosphere in a 1:1 mixture of Dulbecco's modified Eagle's medium (DMEM) and Ham's F12 medium containing 2 mM L-glutamine, 50 IU/ml penicillin, 50 μg/ml streptomycin, and 10% (v/v) fetal calf serum. […] [^125 I]-Labelling— Radiolabeling of Nanobodies with ^125I was performed using the Iodo-gen method (Pierce, Rockford, Ill.) according to the manufacturer's protocol. ^125I-labeled Nanobodies was separated from free iodine (>99%) using a Sephadex G-25 gel filtration column (Amersham Biosciences, Piscataway, N.J.). […] Competition Binding Assays— Membranes from HEK293T cells transiently expressing CXCR3 or CXCR4 were prepared 48 h after transfection as follows. Cells were washed and scraped from the cell culture dishes with ice-cold PBS containing 1 mm EDTA. The scraped cells were pelleted at 1500×g for 10 min at 4° C. The pellet was washed and then resuspended in ice-cold membrane buffer (15 mM Tris, pH 7.5, 1 mM EGTA, 0.3 mM EDTA, and 2 mM MgCl2). The cell suspension was homogenized by 10 strokes at 1200 rpm using a Teflon-glass homogenizer and rotor and further subjected to three freeze-thaw cycles using liquid nitrogen. Membranes were separated by centrifugation at 40,000 g for 25 min at 4° C. The membrane pellet was washed and resuspended in ice-cold Tris-sucrose buffer (20 mM Tris, pH 7.4, and 250 mM sucrose) and frozen in liquid nitrogen. The total protein was determined using a Bradford assay (Bio-Rad). […] Membranes were then harvested over polyethylenimine (0.5%)-treated Whatman GF/C filter plates and washed three times with ice cold binding buffer containing 500 mM NaCl. Plates were counted by liquid scintillation. Inositol Phosphate Accumulation Assay— 24 hours post transfection with pcDNA3.1-CXCR4 and pcDNA1-HA-mG {alpha} qi5 (see Verzijl et al, 2008 supra), 250.000 cells were seeded into 24-wells plates and labelled overnight using inositol-free minimal essential medium supplemented with 1 μCi myo-[2-^3H]-inositol. The next day, the cells were washed once to remove not incorporated myo-[2-^3H]-inositol. […] In agonist experiments, the cells were directly stimulated with test compounds and LiCl (10 mM) in assay buffer for 2 h at 37° C. The stimulation was stopped by aspirating the stimulation medium and adding ice-cold 10 mM formic acid. The accumulated inositol phosphates were isolated by anion exchange chromatography and counted by liquid scintillation. CRE Reporter Gene Assay— HEK239T cells were transfected with pCRE/β-galactosidase (Chen W, Shields T S, Stork P J S, Cone R D (1995) Anal Biochem 226:349-354) and plasmids (pcDEF3 or pcDNA3.1) encoding the indicated receptors. 40,000 transfected cells per well were seeded into 96 well plates and grown in DMEM supplemented with 10% fetal calf serum. The medium was replaced 32 h after transfection by serum-free DMEM supplemented with 0.5% bovine serum albumin and ligands as indicated. […] The β-galactosidase activity was determined by the measurement of absorption at 420 nm with a PowerwaveX340 plate reader (Bio-Tek Instruments Inc., Winooski, Vt.) after incubation with the assay buffer when the OD420 value for forskolin (3 μM) controls reached 0.4-0.6. Chemotaxis Assay— The chemotactic responsiveness of Jurkat 3D cells was assessed using ChemoTx™ plates (Receptor Technologies Ltd., Oxon, UK) in which a upper cell-containing compartment is separated from a lower chemoattractant-containing compartment by a polyvinylpyrollidone-free polycarbonate filter with 5-μm pores. Cells were harvested, washed and resuspended in RPMI containing 0.5% bovine serum albumin and then loaded to 150,000 cells per well in a volume of 25 μl into the upper compartment of the chemotaxis chamber.

[1] = membranes from HEK293T cells transiently expressing CXCR4, mean ± S.E.M.

Molecule	displacement of [125I]-238D2 from CXCR4 ([125I]-238D2 3 nM)	Displacem. (%) of [125I]-238D2 (maximal displacement) [1] [%]	pKi, [125I]-238D2 [1]
B1	full displacement	101 ± 1	
B2		97 ± 6	8.41 ± 0.11
